Assay results: paper doi:10.1101/2024.09.10.612331
One block for each molecule: values may come before it.

Key:
[1] = molecular target: ALX4 homeodomain V241R (V28R) (mouse cDNA (identical to human in this region, as the paper says)); test: native gel or EMSA
[2] = molecular target: ALX4 homeodomain (aa 209-274) (mouse cDNA (identical to human in this region, as the paper says)); test: crystal structure
[3] = molecular target: ALX4 homeodomain (aa 209-274) (mouse cDNA (identical to human in this region, as the paper says)); test: native gel or EMSA
[4] = molecular target: ALX4 homeodomain R215A (R2A) (mouse cDNA (identical to human in this region, as the paper says)); test: native gel or EMSA
[5] = molecular target: ALX4 homeodomain R216A (R3A) (mouse cDNA (identical to human in this region, as the paper says)); test: native gel or EMSA
ALX4 R272P = ALX4 R272P (mouse cDNA (human protein sequence …, UniProt O35137 158-291, R260P)); test: ITC
[6] = molecular target: ALX4 WT (ITC, mutant-series EMSA) (mouse cDNA (human protein sequence …, UniProt O35137 158-291)); test: ITC
ALX4 R215A = ALX4 R215A (mouse cDNA (human protein sequence …, UniProt O35137 158-291, R203A)); test: ITC
ALX4 Q225E = ALX4 Q225E (mouse cDNA (human protein sequence …, UniProt O35137 158-291, Q213E)); test: ITC
ALX4 R216A = ALX4 R216A (mouse cDNA (human protein sequence …, UniProt O35137 158-291, R204A)); test: ITC
ALX4 R216G = ALX4 R216G (mouse cDNA (human protein sequence …, UniProt O35137 158-291, R204G)); test: ITC
ALX4 K211E = ALX4 K211E (mouse cDNA (human protein sequence …, UniProt O35137 158-291, K199E)); test: ITC
ALX4 R215A;R216A = ALX4 R215A;R216A (mouse cDNA (human protein sequence …, UniProt O35137 158-291, R203A;R204A)); test: ITC
ALX4 R218Q = ALX4 R218Q (mouse cDNA (human protein sequence …, UniProt O35137 158-291, R206Q)); test: ITC
ALX4 V241R = ALX4 V241R (mouse cDNA (human protein sequence …, UniProt O35137 158-291, V229R)); test: ITC
Sequence of ALX4 V241R (mouse cDNA (O35137 158-291 V229R): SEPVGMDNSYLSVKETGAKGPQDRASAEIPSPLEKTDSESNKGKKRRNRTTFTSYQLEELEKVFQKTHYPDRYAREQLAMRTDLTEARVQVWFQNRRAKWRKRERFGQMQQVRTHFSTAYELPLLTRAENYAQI

Sequence of ALX4 WT (ITC, mutant-series EMSA) (mouse cDNA (O35137 158-291, stated change not applied): as the sequence (O35137 158-291 V229R) above, with R72V counted along it
Sequence of ALX4 R218Q (mouse cDNA (O35137 158-291 R206Q): as the sequence (O35137 158-291 V229R) above, with R49Q, R72V counted along it
Sequence of ALX4 R272P (mouse cDNA (O35137 158-291 R260P): as the sequence (O35137 158-291 V229R) above, with R72V, R103P counted along it
Sequence of ALX4 R216A (mouse cDNA (O35137 158-291 R204A): as the sequence (O35137 158-291 V229R) above, with R47A, R72V counted along it
Sequence of ALX4 K211E (mouse cDNA (O35137 158-291 K199E): as the sequence (O35137 158-291 V229R) above, with K42E, R72V counted along it
Sequence of ALX4 R215A (mouse cDNA (O35137 158-291 R203A): as the sequence (O35137 158-291 V229R) above, with R46A, R72V counted along it
Sequence of ALX4 R216G (mouse cDNA (O35137 158-291 R204G): as the sequence (O35137 158-291 V229R) above, with R47G, R72V counted along it
Sequence of ALX4 R215A;R216A (mouse cDNA (O35137 158-291 R203A/R204A): as the sequence (O35137 158-291 V229R) above, with R46A, R47A, R72V counted along it
Sequence of ALX4 Q225E (mouse cDNA (O35137 158-291 Q213E): as the sequence (O35137 158-291 V229R) above, with Q56E, R72V counted along it

Molecule: ALX4 homeodomain (aa 209-274) (domain or fragment)
stoichiometry N [2]: 2 | Tau (cooperativity factor on the P3 DNA site) [3]: 110 | Tau (cooperativity factor on the P4 DNA site) [3]: 1.5

B1: 14-mer monomer site ITC duplex (dsDNA)
DNA 1: CGCTAATTAGCTCG
DNA 2: CGAGCTAATTAGCG
Kd (ALX4 R272P): 43.6 ± 12.1 nM | Kd [6]: 15.5 ± 0.98 nM | Kd (ALX4 R215A): 30.4 ± 18.5 nM | Kd (ALX4 Q225E): 52.5 ± 12.3 nM | Kd (ALX4 R216A): 15.2 ± 4.63 nM | Kd (ALX4 R216G): 41.8 ± 8.81 nM | Kd (ALX4 K211E): 21.5 ± 7.68 nM | Kd (ALX4 R215A;R216A): 214 ± 39.8 nM | binding result (ALX4 R218Q): no binding | Kd (ALX4 V241R): 7.45 ± 5.22 nM

Results, then the molecule that gave them:

Tau (cooperativity factor on the P3 DNA site) [1]: 0.327
Molecule: ALX4 homeodomain V241R (V28R) (domain or fragment)

fold reduction of cooperativity (Tau on the P3 site) against wild type [4]: 5 fold
Molecule: ALX4 homeodomain R215A (R2A) (domain or fragment)

fold reduction of cooperativity (Tau on the P3 site) against wild type [5]: 10 fold
Molecule: ALX4 homeodomain R216A (R3A) (domain or fragment)
